The source of these data is patent publication US20110052551A1, “CARDIAC MYOCYTE MORPHOGENIC COMPOSITIONS AND METHODS OF USE THEREFOR” (priority 2008, published 2011).

Holding throughout (type): cell-based, mice
Test [1] has as its system unfractionated BMMNCs. As to the kind of experiment: Proliferation of unfractionated BMMNCs (Trypan blue cell count). Conditions: cultures initiated with 10^4 cells. The procedure: Assessment of cellular proliferation. To study proliferation within each experimental group, unfractionated BMMNCs (n=1×10^4) were cultured as above in separate experiments (see FIG. 9A). Cells were monitored by phase contrast microscopy during culture in a humidified 5% CO2 incubator at 37° C. for up to 21 days. The medium was replenished every 6 days and expanded cells were harvested by trypsinization and gentle resuspension on days 8, 16, and 21. Cell number and viability was determined by Trypan blue staining, and the fold-increase in cell number over time was analyzed.

The subject of test [2] is unfractionated BMMNCs. As to the kind of experiment: qRT-PCR of cardiac-specific mRNA levels in cultured BMMNCs. Conditions: 21 days of culture. From the text:
Induction of differentiation. To assess the influence of ectopic expression of Wnt11 on BMMNC differentiation, Wnt11 conditioned medium (Wnt11-CM) was generated. Specifically, unfractionated BMMNCs were co-cultured with Wnt11-expressing HEK-293 cells (Wnt11/293-2; designated as Wnt11-CM), under the same conditions used to culture BMMNCs. In order to achieve strict separation of cell types during co-culture experiments, BMMNC and Wnt11/293 cells were separated into upper and lower chambers of a TRANSWELL® co-culture system. […]
Assessment of mRNA expression by quantitative real-time RT-PCR (qRT-PCR). […] Prior to mRNA extraction, cell number was determined and calculated by Trypan blue exclusion. cDNA was generated from freshly isolated (designated as baseline) and cultured unfractionated BMMNCs at days 0, 3, 7, and 21 (see FIG. 9A) using QUANTISCRIPT REVERSE TRANSCRIPTASE™ (Qiagen Inc., Valencia, Calif., United States of America) contained in RT master mix of Cell to cDNA kits according to manufacturer's protocol. […]
To avoid amplification of contaminating DNA, all validated qRT-PCR primers were designed to cross […] sequences within the cDNA to be amplified. Quantitative qRT-PCR analysis was performed in an ABI Prism 7900H sequence detection system (Applied Biosystems, Foster City, Calif.) using QUANTITECT™ SYBR® Green Real Time PCR kits. […]
In general terms: Quantitative PCR measures a nucleic acid by following its amplification.

Test [3] concerns unfractionated BMMNCs. The test can be described thus: qRT-PCR of Wnt3a and β-catenin expression in cultured BMMNCs. As to conditions: 21 days, relative to baseline. As for the experimental part: Assessment of mRNA expression by quantitative real-time RT-PCR (qRT-PCR). All qRT-PCR reagents and primers were purchased from Qiagen Inc. (Valencia, Calif., United States of America). Prior to mRNA extraction, cell number was determined and calculated by Trypan blue exclusion. cDNA was generated from freshly isolated (designated as baseline) and cultured unfractionated BMMNCs at days 0, 3, 7, and 21 (see FIG. 9A) using QUANTISCRIPT REVERSE TRANSCRIPTASE™ (Qiagen Inc., Valencia, Calif., United States of America) contained in RT master mix of Cell to cDNA kits according to manufacturer's protocol. […]
To avoid amplification of contaminating DNA, all validated qRT-PCR primers were designed to cross […] sequences within the cDNA to be amplified. Quantitative qRT-PCR analysis was performed in an ABI Prism 7900H sequence detection system (Applied Biosystems, Foster City, Calif.) using QUANTITECT™ SYBR® Green Real Time PCR kits. Each 50 μl qRT-PCR reaction contained 2 μl (approximately 50 ng) of cDNA, 5 μl of 1× primer mix (containing approximately 500 nM sense and anti-sense primers) and 25 μl of 2× QUANTITECT™ SYBR® Green master mix. […]
The PCR product level is calculated from the threshold cycle (Ct). That is, the amplification cycle number at which exponential PCR-generated gene-specific fluorescence is first detected (above a fixed threshold level). […]

B1: Wnt3a: recombinant Wnt3a protein, canonical Wnt, used at 150 ng/ml (protein, UniProt P56704 19-352, looked up)
Protein Wnt-3a: SYPIWWSLAVGPQYSSLGSQPILCASIPGLVPKQLRFCRNYVEIMPSVAEGIKIGIQECQHQFRGRRWNCTTVHDSLAIFGPVLDKATRESAFVHAIASAGVAFAVTRSCAEGTAAICGCSSRHQGSPGKGWKWGGCSEDIEFGGMVSREFADARENRPDARSAMNRHNNEAGRQAIASHMHLKCKCHGLSGSCEVKTCWWSQPDFRAIGDFLKDKYDSASEMVVEKHRESRGWVETLRPRYTYFKVPTERDLVYYEASPNFCEPNPETGSFGTRDRTCNVSSHGIDGCDLLCCGRGHNARAERRREKCRCVFHWCCYVSCQECTRVYDVHTCK
With B1, the “increase in cell number” value in the test on unfractionated BMMNCs [1] (day 16) turned out to be 110±0.1 fold; in the test on unfractionated BMMNCs [1] (day 21) it was 297±0.1 fold. Also, the cardiac-specific transcripts result with unfractionated BMMNCs [2] is “no cardiac-specific transcripts were detected”. Besides, in the test on unfractionated BMMNCs [3], the “increase in β-catenin expression” value came out at 183.4±0.3 fold.
